For assay [1], the target named is Bacillus anthracis protective antigen PA83 (Bacillus anthracis, UniProt P13423 30-764). In words: SPR (BIACORE), PA83 on CM5 chip, 4 concentrations of monomeric scFv. For orientation: Surface plasmon resonance follows binding to a sensor surface in real time, without labels.
A further assay addresses recombinant PA32 protein (Bacillus anthracis). Nature of the assay: SPR, PA32 coupled to CM5 chip, single scFv concentration.
Another assay has as its target EGFP-PA32 fusion protein (Bacillus anthracis). In words: SPR (BIAcore), […], single concentration.

The values below come from patent publication US20040014707A1 (published 2004).

B1: scFv#1 (scFv)
scFv: QVNLRESGGGLVQPGGSLRLSCAASGFTFSSYAMSWVRQAPGKGLEWVSAISSNGGSTYYADSVKGRFTISRDNSKNTLYLQMSSLRAEDTALYYCARERGAAAASDYWGPGTLVTVSSGGGGSSGGGSGGGGSQSVLTQPPSASGTPGQRVTISCSGSSSNIGSNSVNWYQQLPGTAPKLLIYSNSNRPSGVPDRFSGSKSGTSASLAISGLRSEDEADYYCAAWDDSLSGRVFGGGTKLTVLGAAAEQKLISEEDLNGAAHHHHHH
The Kd is the equilibrium constant for the complex coming apart. Lower therefore signals higher affinity. B1: the Kd in assay [1] worked out at 190 nM.

B2: scFv#24 (scFv)
scFv: QVQLVESGGGLVQPGGSLRLSCSASGFTFSSYAMHWVRQAPGKGLEYVSAISSNGGSTYYADSVKGRFTISRDNSKNTLYLQMSSLRAEDTAVYYCVKDLHVGRLQLGVFDYWGQGTLVTVSSGGGGSGGGGSGGGGSSELTQDPAVSVAVGQTVKITCQGDSLRSYYATWYQQKPGQAPVLVIYGKNSRPSGIPDRFSGSSSGTTASFTITGAQAEDEADYYCNSRDSTNNQLFGGGTKLTVLGAAAEQKLISEEDLNGAAHHHHH
For the molecule B2, the Kd in assay [1] was 430 nM.

B3: scFv#12 (scFv)
scFv: QVQLVESGGGVVQPGRSLRLSCAASGFTFNNHAMEWVRQAPGKGLEWVSGINWDGGSTGYADSVKGRFAVSRDNAKNSLYLQINSLRDEDTAVYYCARANWGRIDYWGQGTLVTVSSGGGGSGGGGSGGGGSSELTQDPAVSVALGQTVRITCQGDSLRRYYASWYQQKPGQAPVLVIYGKNNRPSGIPDRFSGSSSGNTASLTITGAQAEDEADYYCHSRDSSGTHLRVFGGGTKLTVLGAAAEQKLISEEDLNGAAHHHHH
For B3, the binding result with recombinant PA32 protein and with EGFP-PA32 fusion protein was “no binding” throughout.

B4: scFv#4 (scFv)
scFv: QVQLVESGGGLVQPGGSLRLSCSASGFTFSSYAMHWVRQAPGKGLEYVSAISSNGGSTYYADSVKGRFTISRDNSKNTLYLQMSSLRAEDTAVYYCVKDLHVGRLQLGVFDYWGQGTLVTVSSGGGGSGGGGSGGGGSSELTQDPAVSVALGQTVRITCQGDSLRSYYASWYQQKPGQAPVLVIYGKNNRPSGIPDRFSGSSSGNTASLTITGAQAEDEADYYCNSRDSSSTHRGVFGGGTKLTVLGAAAEQKLISEEDLNGAAHHHHHH
Turning to B4, the Kd in assay [1] was determined as 310 nM.
